Assay results as given in patent US20240376224A1 (University of California, published 2024).

Columns and labels:
[1] = target: T1, cleaved human CDCP1 on the cell surface (endogenous, PDAC cells) (human) (UniProt Q9H5V8); experiment: dose-response flow cytometry on PL45 cells; PL45 cells
T1 sequence 1: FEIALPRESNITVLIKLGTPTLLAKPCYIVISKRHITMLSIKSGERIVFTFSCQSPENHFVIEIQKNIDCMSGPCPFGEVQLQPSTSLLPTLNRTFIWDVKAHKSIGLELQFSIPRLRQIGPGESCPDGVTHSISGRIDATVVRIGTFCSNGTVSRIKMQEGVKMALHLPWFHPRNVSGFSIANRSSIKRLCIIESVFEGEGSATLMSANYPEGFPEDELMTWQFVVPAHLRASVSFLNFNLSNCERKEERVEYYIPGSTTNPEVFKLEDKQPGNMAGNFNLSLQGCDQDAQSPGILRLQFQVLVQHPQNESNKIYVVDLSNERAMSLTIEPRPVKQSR
T1 sequence 2: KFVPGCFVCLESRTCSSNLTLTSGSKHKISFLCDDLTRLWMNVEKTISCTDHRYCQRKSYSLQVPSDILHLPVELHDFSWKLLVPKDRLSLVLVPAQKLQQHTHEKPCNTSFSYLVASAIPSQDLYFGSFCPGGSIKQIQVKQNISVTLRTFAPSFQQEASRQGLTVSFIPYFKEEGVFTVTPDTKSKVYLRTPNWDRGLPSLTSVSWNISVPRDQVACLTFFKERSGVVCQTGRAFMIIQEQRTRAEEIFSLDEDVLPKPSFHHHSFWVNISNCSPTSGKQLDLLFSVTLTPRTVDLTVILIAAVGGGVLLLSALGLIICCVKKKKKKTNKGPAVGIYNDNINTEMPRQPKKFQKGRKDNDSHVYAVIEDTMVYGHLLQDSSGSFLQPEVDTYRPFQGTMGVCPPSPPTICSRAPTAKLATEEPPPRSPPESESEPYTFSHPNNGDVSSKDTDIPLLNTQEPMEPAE

[2] = target: T2, mouse fl-CDCP1 (recombinant uncleaved mouse CDCP1) (mouse, UniProt Q5U462 30-666); experiment: BLI (Octet), mouse fl-CDCP1-Fc on the sensor, IgG CL03 as analyte
T2 construct: The mouse antigen made was fl-CDCP1-Fc; also called mouse fl-CDCP1-Fc
T2 sequence: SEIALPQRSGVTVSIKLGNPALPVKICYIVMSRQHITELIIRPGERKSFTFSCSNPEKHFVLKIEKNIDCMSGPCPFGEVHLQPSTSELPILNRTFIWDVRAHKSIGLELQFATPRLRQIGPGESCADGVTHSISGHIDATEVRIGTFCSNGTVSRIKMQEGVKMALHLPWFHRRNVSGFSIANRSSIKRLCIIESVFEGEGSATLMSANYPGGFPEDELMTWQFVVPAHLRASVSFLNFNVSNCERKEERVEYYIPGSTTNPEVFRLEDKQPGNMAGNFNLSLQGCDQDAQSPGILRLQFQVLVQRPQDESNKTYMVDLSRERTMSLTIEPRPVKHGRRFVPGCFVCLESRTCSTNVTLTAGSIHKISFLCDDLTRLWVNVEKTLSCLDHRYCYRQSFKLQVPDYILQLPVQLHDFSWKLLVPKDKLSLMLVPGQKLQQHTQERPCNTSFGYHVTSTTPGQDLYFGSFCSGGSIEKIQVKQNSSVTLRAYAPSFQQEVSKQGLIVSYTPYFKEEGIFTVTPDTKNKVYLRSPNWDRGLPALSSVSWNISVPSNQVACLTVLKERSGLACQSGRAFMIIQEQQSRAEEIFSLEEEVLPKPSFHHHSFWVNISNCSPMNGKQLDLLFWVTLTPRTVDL

His-TEV-CUB1 = target: T3, His-TEV-CUB1 (human, UniProt Q9H5V8 30-367); experiment: sandwich ELISA, CL03 as capture antibody, antigen titrated (ng/mL), anti-CDCP1 polyclonal antibody for detection
T3 construct: also called CUB1 (His-TEV-CUB1, soluble NTF); not shown: His tag and TEV site
T3 sequence: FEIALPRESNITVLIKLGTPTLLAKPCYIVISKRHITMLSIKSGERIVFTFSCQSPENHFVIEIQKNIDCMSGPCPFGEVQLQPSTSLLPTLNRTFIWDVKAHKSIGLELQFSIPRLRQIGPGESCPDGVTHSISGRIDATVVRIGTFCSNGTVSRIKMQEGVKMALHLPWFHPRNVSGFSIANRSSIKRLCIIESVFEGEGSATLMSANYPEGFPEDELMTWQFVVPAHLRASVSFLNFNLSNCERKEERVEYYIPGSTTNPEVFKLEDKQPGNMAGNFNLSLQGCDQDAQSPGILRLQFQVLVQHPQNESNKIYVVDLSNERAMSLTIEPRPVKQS
Description: (§1) CUB1 N-terminal fragment (NTF) is present only in human serum. Since CL03 binds to an epitope on CUB1 domain that is exposed upon proteolysis, CUB1 (NTF) would serve as a sink to CL03 that decreases the viable concentration of CL03 on tumor site if it binds to CUB1 only in human serum. To further investigate the binding mechanism of CL03, an ELISA experiment was performed in which the binding of CL03 to CUB1 in human serum was evaluated. ELISA assays were performed as generally described in Example 1. Briefly, either IgG CL03 or 4A06 was used as the capture antibody; the target antigens evaluated were as presented in Table 9 below; and an anti-CDCP1 polyclonal Ab was used as the detection antibody (R&D: Cat. #AF2666).

His-CUB1 = target: T4, His-CUB1 (human, UniProt Q9H5V8 30-367, limits assumed); experiment: as above
T4 construct: also called CUB1 (His-CUB1, soluble NTF); not shown: His tag
T4 sequence: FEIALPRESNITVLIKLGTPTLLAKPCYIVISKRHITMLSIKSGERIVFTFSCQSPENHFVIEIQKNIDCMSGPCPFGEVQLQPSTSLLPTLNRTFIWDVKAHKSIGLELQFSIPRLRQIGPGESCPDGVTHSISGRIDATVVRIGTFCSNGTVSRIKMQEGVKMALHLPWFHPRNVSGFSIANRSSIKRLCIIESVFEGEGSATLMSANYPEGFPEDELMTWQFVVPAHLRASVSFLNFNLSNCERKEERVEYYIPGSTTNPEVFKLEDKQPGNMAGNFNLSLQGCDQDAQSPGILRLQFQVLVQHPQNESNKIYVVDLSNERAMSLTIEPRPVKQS
Description: as §1

[3] = target: T5, soluble CUB1 (NTF) used as competitor (human, UniProt Q9H5V8 30-367, limits assumed); experiment: flow cytometry competition: CUB1-His (NTF) titrated against 100, 50 or 0 nM IgG CL03 on cleaved CDCP1 positive cells
T5 sequence: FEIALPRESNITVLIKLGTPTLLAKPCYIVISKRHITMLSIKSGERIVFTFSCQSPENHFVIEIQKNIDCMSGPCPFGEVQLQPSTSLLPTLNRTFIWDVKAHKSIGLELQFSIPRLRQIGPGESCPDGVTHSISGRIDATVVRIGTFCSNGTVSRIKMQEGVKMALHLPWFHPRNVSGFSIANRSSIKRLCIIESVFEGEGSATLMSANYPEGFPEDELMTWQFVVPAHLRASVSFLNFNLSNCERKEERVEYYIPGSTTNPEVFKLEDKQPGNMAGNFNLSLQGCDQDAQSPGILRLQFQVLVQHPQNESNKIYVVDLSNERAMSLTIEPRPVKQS
Description: To further evaluate the recognition of cleaved CDCP1 on cancer cells by CL03, a competition assay was performed to evaluate whether soluble CUB1 (NTF) could compete with the binding of CL03 on cleaved CDCP1 positive cells. […] Primary Ab (CL03 IgG) and different concentrations of CUB1 (NTF) were added to cells for 30 minutes at 4° C. Bound Abs were detected with addition of AlexaFluor-488 conjugated Goat anti-human IgG, F(ab′)2 fragment specific (Jackson ImmunoResearch: 1:1000). Cells were washed 3× with PBS+3% BSA and fluorescence was quantified using a CytoFLEX (Beckman Coulter) flow cytometer. All flow cytometry data analysis was performed using FlowJo software and Prism software (GraphPad).

B1: CL03 IgG (antibody, V domains shown)
VH: EVQLVESGGGLVQPGGSLRLSCAASGFNFSSYSIHWVRQAPGKGLEWVASIYPYSGSTYYADSVKGRFTISADTSKNTAYLQMNSLRAEDTAVYYCARQSHSYYSHTWWVSYGMDYWGQGTLVTVSS
VL: DIQMTQSPSSLSASVGDRVTITCRASQSVSSAVAWYQQKPGKAPKLLIYSASSLYSGVPSRFSGSRSGTDFTLTISSLQPEDFATYYCQQSGQRPITFGQGTKVEIKR
notes: also called IgG CL03
B1 was tested, and the EC50 [1] was 20.7 nM, the binding result [2] was “no binding (tested: not printed)” and the binding result (His-TEV-CUB1) was “no binding (tested: 1000 ng/mL)”. B1: no binding (tested: 1000 ng/mL) (His-CUB1); no binding (tested: about 800 nM) [3].
